According to US20230031853A1:

What was measured:
[1] = molecular target: splitGFP(1-10); assay: in vitro splitGFP complementation, fluorescence; reference pAbBD-S11
[2] = molecular target: splitGFP(1-10); assay: cell-based or functional assay

| fluorescence relative to pAbBD-S11 [1] [fold] | fold-increase in median splitGFP fluorescence, flow cytometry 6 hours after electroporation into HEK293T splitGFP(1-10) cells [2] [fold] | Substance |
| --- | --- | --- |
| 2 | 39.4 | Ritux-(pAbBD-S11)2 (antibody) |
|  | 33.5 | pAbBD-S11 |
